Publication PMC5014123 (Nature communications, 2015)
Values joined by “and” are separate entries in the source; they are usually repeats but may differ in a detail not shown here. Equal values may be shown once. Non-standard residues stand in square brackets, D forms with d.

Legend:
MMP-2 = MMP-2 (UniProt P08253 30-660); assay: cell-based or functional assay
MMP-14 = MMP-14 (UniProt P50281 112-541); assay: cell-based or functional assay
native gel or EMSA = target: the molecule itself; assay: native gel or EMSA

Chain of MMP-2 (P08253 30-660): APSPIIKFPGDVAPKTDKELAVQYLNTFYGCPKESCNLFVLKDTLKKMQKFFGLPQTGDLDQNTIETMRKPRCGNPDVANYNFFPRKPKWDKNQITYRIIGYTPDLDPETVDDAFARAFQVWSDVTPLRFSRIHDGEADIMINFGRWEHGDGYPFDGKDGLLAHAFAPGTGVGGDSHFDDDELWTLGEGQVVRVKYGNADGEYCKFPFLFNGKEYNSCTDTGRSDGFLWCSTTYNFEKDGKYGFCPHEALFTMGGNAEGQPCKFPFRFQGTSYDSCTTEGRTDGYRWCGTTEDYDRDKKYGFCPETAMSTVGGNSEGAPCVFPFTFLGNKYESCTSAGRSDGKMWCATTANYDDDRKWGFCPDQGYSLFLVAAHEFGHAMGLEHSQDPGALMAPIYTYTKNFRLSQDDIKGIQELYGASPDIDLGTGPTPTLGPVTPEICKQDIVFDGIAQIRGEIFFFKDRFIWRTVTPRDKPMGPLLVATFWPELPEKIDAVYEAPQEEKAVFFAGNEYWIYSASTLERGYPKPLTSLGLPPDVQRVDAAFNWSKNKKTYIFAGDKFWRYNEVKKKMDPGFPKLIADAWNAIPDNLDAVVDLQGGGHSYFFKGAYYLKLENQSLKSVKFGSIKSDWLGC

B1: cyclo-RLsKDK (BK-1361) (peptide)
peptide: cyclo(RL[dS]KDK)
SMILES: CC(C)C[C@@H]1NC(=O)[C@H](CCCNC(=N)N)NC(=O)[C@H](CCCCN)NC(=O)[C@H](CC(=O)O)NC(=O)[C@H](CCCCN)NC(=O)[C@@H](CO)NC1=O
IC50 of inhibition of catalytic activity (substrate Mca-PLGL-Dpa-AR-NH2) (MMP-2): > 10 µM
IC50 of inhibition of catalytic activity (substrate Mca-KPLGL-Dpa-AR-NH2) (MMP-14): > 10 µM

B2: Inactive recombinant human ADAM8 (Met1-Pro497) (domain or fragment, UniProt P78325-1 17-497, looked up)
chain: IAPSRPWALMEQYEVVLPWRLPGPRVRRALPSHLGLHPERVSYVLGATGHNFTLHLRKNRDLLGSGYTETYTAANGSEVTEQPRGQDHCFYQGHVEGYPDSAASLSTCAGLRGFFQVGSDLHLIEPLDEGGEGGRHAVYQAEHLLQTAGTCGVSDDSLGSLLGPRTAAVFRPRPGDSLPSRETRYVELYVVVDNAEFQMLGSEAAVRHRVLEVVNHVDKLYQKLNFRVVLVGLEIWNSQDRFHVSPDPSVTLENLLTWQARQRTRRHLHDNVQLITGVDFTGTTVGFARVSAMCSHSSGAVNQDHSKNPVGVACTMAHEMGHNLGMDHDENVQGCRCQERFEAGRCIMAGSIGSSFPRMFSDCSQAYLESFLERPQSVCLANAPDLSHLVGGPVCGNLFVERGEQCDCGPPEDCRNRCCNSTTCQLAEGAQCAHGTCCQECKVKPAGELCRPKKDMCDLEEFCDGRHPECPEDAFQENGTP
stoichiometry N (native gel or EMSA): 2 and 3
